Data on 37 sequences can be found in the supplement of paper PMC7877785.

± gives the uncertainty stated by the source.

The data set is described as follows: self-splicing fitness, log relative to wild type (ln ratio); higher = more splicing; Tetrahymena group I intron in knt gene, E. coli kanamycin selection, DiMSum; sequences stand for … in CUCUCU…GGAGGGAAAAGUUAUCAGGCAUGCACCUGGUAGCUAGUCUUUAAACCAAUAGAUUGCAUCGGUUUAAAAGGCAAGACCGUCAAAUUGCGGGAAAGGGGUCAACAGCCGUUCAGUACCAAGUCUCAGGGGAAACUUUGAGAUGGCCUUGCAAAGGGUAUGGUAAUAAGCUGACGGACAUGGUCCUAACCACGCAGCCAAGUCCUAAGUCAACAGAUCUUCUGUUGAUAUGGAUGCAGUUCACAGACUAAAUGUCGGUCGGGGAAGAUGUAUUCUUCUCAUAAGAUAUAGUCGGACCUCUCCUUAAUGGGAGCUAGCGGAUGAAGUGAUGCAACACUGGAGCCGCUGGGAACUAAUUUGUAUGCGAAAGUAUAUUGAUUAGUUUUGGAGUACUCGUGGUCG
The gist of the method: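 Six replicate transformations of E. coli BL21(DE3) with a pET-22b(+) library were grown overnight at 37°C or 30°C. The library randomised all eight P1ex-region intron nucleotides, the intron lying in the knt kanamycin-resistance gene, and plates were LB agar with or without 25 μg/mL kanamycin plus 100 μg/mL carbenicillin, 50 μM IPTG and 0.2% rhamnose. Pooled colonies were amplicon-sequenced on an Illumina HiSeq 2500, and fitness is the DiMSum error-weighted combination of wild-type-normalised replicate fold changes, kanamycin versus none.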

Consider AAUGAGCAAUAUUACGUUGU, for which the “self-splicing fitness (ln)” value reads like this: (30 °C) -3.73 ± 0.14; (37 °C) -2.89 ± 0.16.

In the case of AAUUAGCAAUAUUACGAAAA, the “self-splicing fitness (ln)” value runs as follows: (30 °C) -2.54 ± 0.24; (37 °C) -0.586 ± 0.19.

AAUUAGCAAUAUUACGAAGC: the “self-splicing fitness (ln)” value (30 °C) was -1.94 ± 0.27.

Turning to AAUUAGCAAUAUUACGAAGG, the “self-splicing fitness (ln)” value is -2.79 ± 0.23 (30 °C) and -1.88 ± 0.35 (37 °C).

In the case of AAUUAGCAAUAUUACGAUGU, the “self-splicing fitness (ln)” value (30 °C) was -0.358 ± 0.078 and the “self-splicing fitness (ln)” value (37 °C) turned out to be 0.171 ± 0.11.

Turning to AAUUAGCAAUAUUACGAUUU, the “self-splicing fitness (ln)” value runs as follows: (30 °C) -0.494 ± 0.11; (37 °C) -0.268 ± 0.13.

For the sequence AAUUAGCAAUAUUACGCAGC, the “self-splicing fitness (ln)” value (30 °C) was -3.15 ± 0.48 and the “self-splicing fitness (ln)” value (37 °C) is -2.21 ± 0.27.

For the sequence AAUUAGCAAUAUUACGCGCA, the “self-splicing fitness (ln)” value (30 °C) was -0.118 ± 0.11 and the “self-splicing fitness (ln)” value (37 °C) came out at 0.114 ± 0.15.

As to AAUUAGCAAUAUUACGCGCG, the “self-splicing fitness (ln)” value was -1.62 ± 0.17 (30 °C) and -0.951 ± 0.18 (37 °C).

Take AAUUAGCAAUAUUACGCUUU: the “self-splicing fitness (ln)” value by setting is: (30 °C) -3.27 ± 0.23; (37 °C) -1.01 ± 0.14.

Regarding AAUUAGCAAUAUUACGGCAA, the “self-splicing fitness (ln)” value was -0.926 ± 0.14 (30 °C) and -0.497 ± 0.18 (37 °C).

For AAUUAGCAAUAUUACGGCAU, the “self-splicing fitness (ln)” value by setting is: (30 °C) 0.0829 ± 0.11; (37 °C) 0.351 ± 0.11.

For the sequence AAUUAGCAAUAUUACGGCUA, the “self-splicing fitness (ln)” value by setting is: (30 °C) -0.905 ± 0.17; (37 °C) -0.685 ± 0.22.

Take AAUUAGCAAUAUUACGGGCG: the “self-splicing fitness (ln)” value (30 °C) is -0.93 ± 0.12 and the “self-splicing fitness (ln)” value (37 °C) was -1.36 ± 0.13.

As to AAUUAGCAAUAUUACGGGGU, the “self-splicing fitness (ln)” value was -2.06 ± 0.2 (30 °C) and -2.02 ± 0.32 (37 °C).

Regarding AAUUAGCAAUAUUACGGGUA, the “self-splicing fitness (ln)” value (30 °C) is -1.52 ± 0.11 and the “self-splicing fitness (ln)” value (37 °C) is -0.428 ± 0.098.

For AAUUAGCAAUAUUACGGUUU, the “self-splicing fitness (ln)” value (30 °C) was -1.16 ± 0.063 and the “self-splicing fitness (ln)” value (37 °C) was -0.716 ± 0.089.

Consider AAUUAGCAAUAUUACGUACG, for which the “self-splicing fitness (ln)” value runs as follows: (30 °C) -1.75 ± 0.11; (37 °C) -0.862 ± 0.12.

Regarding AAUUAGCAAUAUUACGUAUC, the “self-splicing fitness (ln)” value (30 °C) was -2.2 ± 0.15 and the “self-splicing fitness (ln)” value (37 °C) was -0.0316 ± 0.13.

As to AAUUAGCAAUAUUACGUCCA, the “self-splicing fitness (ln)” value is -0.685 ± 0.087 (30 °C) and -1.2 ± 0.096 (37 °C).

As to AAUUAGCAAUAUUACGUCCG, the “self-splicing fitness (ln)” value (30 °C) was -1.12 ± 0.18 and the “self-splicing fitness (ln)” value (37 °C) was -0.444 ± 0.26.

Consider AAUUAGCAAUAUUACGUCGU, for which the “self-splicing fitness (ln)” value (30 °C) was -0.641 ± 0.1 and the “self-splicing fitness (ln)” value (37 °C) was -0.862 ± 0.12.

AAUUAGCAAUAUUACGUGGG: the “self-splicing fitness (ln)” value is -3.58 ± 0.24 (30 °C) and -3.64 ± 0.3 (37 °C).

In the case of ACAAAGCAAUAUUACGAACC, the “self-splicing fitness (ln)” value is, setting by setting: (30 °C) -0.815 ± 0.21; (37 °C) -1.44 ± 0.19.

As to ACAAAGCAAUAUUACGAAUU, the “self-splicing fitness (ln)” value is, setting by setting: (30 °C) -3.38 ± 0.2; (37 °C) -2.12 ± 0.18.

Consider ACAAAGCAAUAUUACGACAA, for which the “self-splicing fitness (ln)” value was -0.955 ± 0.15 (30 °C) and -0.443 ± 0.13 (37 °C).

ACAAAGCAAUAUUACGACAC: the “self-splicing fitness (ln)” value by setting is: (30 °C) -1.54 ± 0.084; (37 °C) -0.962 ± 0.1.

Regarding ACAAAGCAAUAUUACGACGC, the “self-splicing fitness (ln)” value is, setting by setting: (30 °C) -0.112 ± 0.044; (37 °C) 0.422 ± 0.066.

For ACAAAGCAAUAUUACGACUA, the “self-splicing fitness (ln)” value is -0.772 ± 0.082 (30 °C) and -0.796 ± 0.084 (37 °C).

With ACAAAGCAAUAUUACGACUU, the “self-splicing fitness (ln)” value is -0.336 ± 0.06 (30 °C) and 0.0905 ± 0.079 (37 °C).

For ACAAAGCAAUAUUACGAGGG, the “self-splicing fitness (ln)” value runs as follows: (30 °C) -3.39 ± 0.11; (37 °C) -2.14 ± 0.11.

Turning to ACAAAGCAAUAUUACGAUCU, the “self-splicing fitness (ln)” value is -0.717 ± 0.067 (30 °C) and -0.0747 ± 0.083 (37 °C).

For ACAAAGCAAUAUUACGAUGC, the “self-splicing fitness (ln)” value by setting is: (30 °C) -1.61 ± 0.11; (37 °C) -1.9 ± 0.15.

With ACAAAGCAAUAUUACGCAAA, the “self-splicing fitness (ln)” value (30 °C) was -2.72 ± 0.14 and the “self-splicing fitness (ln)” value (37 °C) was -1.6 ± 0.12.

Regarding ACAAAGCAAUAUUACGCAGC, the “self-splicing fitness (ln)” value (30 °C) was -2.63 ± 0.17 and the “self-splicing fitness (ln)” value (37 °C) was -0.879 ± 0.16.

ACAAAGCAAUAUUACGCAUA: the “self-splicing fitness (ln)” value reads like this: (30 °C) -2.12 ± 0.12; (37 °C) -0.921 ± 0.11.

For the sequence ACAAAGCAAUAUUACGCCCA, the “self-splicing fitness (ln)” value runs as follows: (30 °C) -1.24 ± 0.11; (37 °C) -0.225 ± 0.13.
